Among the targets are 14949; 19429; 19113.
Common to all, as to assay: BLI
(In general: In BLI a coated tip is dipped into the sample, and binding shifts an interference pattern.)

Usually Kd stands for the equilibrium constant for the complex coming apart.

B1: hEPOR (receptor)
chain: APPPNLPDPKFESKAALLAARGPEELLCFTERLEDLVCFWEEAASAGVGPGNYSFSYQLEDEPWKLCRLHQAPTARGAVRFWCSLPTADTSSFVPLELRVTAASGAPRYHRVIHINEVVLLDAPVGLVARLADESGHVVLRWLPPPETPMTSHIRYEVDVSAGNGAGSVQRVEILEGRTECVLSNLRGRTRYTFAVRARMAEPSFGGFWSAWSEPVSLLTPSDLDP
As to B1, the results for the dissociation constant Kd with 14949, in the assay with 19429 and in the assay with 19113 were 2 nM, 0.8 nM and 2 nM, respectively.

Values taken from patent US20260176374A1 (published 2026).
